Assay results reported in publication PMC6477152 (2019).

B1: FIP200ΔN1115:Luciferase [human] / GST:NDP52 [human] (parent complex)
chain 1: ENYQVGLAELRTLMTIEKDQCISELISRHEEESNILKAELNKVTSLHNQAFEIEKNLKEQIIELQSKLDSELSALERQKDEKITQQEEKYEAIIQNLEKDRQKLVSSQEQDREQLIQKLNCEKDEAIQTALKEFKLEREVVEKELLEKVKHLENQIAKSPAIDSTRGDSSSLVAELQEKLQEEKAKFLEQLEEQEKRKNEEMQNVRTSLIAEQQTNFNTVLTREKMRKENIINDLSDKLKSTMQQQERDKDLIESLSEDRARLLEEKKKLEEEVSKLRSSSFVPSPYVATAPELYGACAPELPGESDRSAVETADEGRVDSAMETSMMSVQENIHMLSEEKQRIMLLERTLQLKEEENKRLNQRLMSQSMSSVSSRHSEKIAIRDFQVGDLVLIILDERHDNYVLFTVSPTLYFLHSESLPALDLKPGEGASGASRRPWVLGKVMEKEYCQAKKAQNRFKVPLGTKFYRVKAVSWNKKV
chain 2: MEETIKDPPTSAVLLDHCHFSQVIFNSVEKFYIPGGDVTCHYTFTQHFIPRRKDWIGIFRVGWKTTREYYTFMWVTLPIDLNNKSAKQQEVQFKAYYLPKDDEYYQFCYVDEDGVVRGASIPFQFRPENEEDILVVTTQGEVEEIEQHNKELCKENQELKDSCISLQKQNSDMQAELQKKQEELETLQSINKKLELKVKEQKDYWETELLQLKEQNQKMSSENEKMGIRVDQLQAQLSTQEKEMEKLVQGDQDKTEQLEQLKKENDHLFLSLTEQRKDQKKLEQTVEQMKQNETTAMKKQQELMDENFDLSKRLSENEIICNALQRQKERLEGENDLLKRENSRLLSYMGLDFNSLPYQVPTSDEGGARQNPGLAYGNPYSGIQESSSPSPLSIKKCPICKADDICDHTLEQQQMQPLCFNCPICDKIFPATEKQIFEDHVFCHSL
B2: FIP200ΔN1115:Luciferase [human] / GST:NAP1aa5–75 [human] (parent complex)
chain 1: B1 chain 1
chain 2: VEDDICILNHEKAHKRDTVTPVSIYSGDESVASHFALVTAYEDIKKRLKDSEKENSLLKKRIRFLEEKLIA

Variants of: B1
Assay: LUMIER assay; HEK293ET cell lysates; bacterially expressed GST bait; read off a plot

| Variant | response |
| --- | --- |
| chain 1 ENYQVGLAELRTLMTIEKDQCISELISRHEEESNILKAELNKVTSLHNQAFEIEKNLKEQIIELQSKLDSELSALERQKDEKITQQEEKYEAIIQNLEKDRQKLVSSQEQDREQLIQKLNCEKDEAIQTALKEFKLEREVVEKELLEKVKHLENQIAKSPAIDSTRGDSSSLVAELQEKLQEEKAKFLEQLEEQEKRKNEEMQNVRTSLIAEQQTNFNTVLTREKMRKENIINDLSDKLKSTMQQQERDKDLIESLSEDRARLLEEKKKLEEEVSKLRSSSFVPSPYVATAPELYGACAPELPGESDRSAVETADEGRVDSAMETSMMSVQENIHMLSEEKQRIMLLERTLQAKEEENKRLNQRLMSQSMSSVSSRHSEKIAIRDFQVGDLVLIILDERHDNYVLFTVSPTLYFLHSESLPALDLKPGEGASGASRRPWVLGKVMEKEYCQAKKAQNRFKVPLGTKFYRVKAVSWNKKV [chain 1 L353A] | ~32 fold binding |
| chain 1 ENYQVGLAELRTLMTIEKDQCISELISRHEEESNILKAELNKVTSLHNQAFEIEKNLKEQIIELQSKLDSELSALERQKDEKITQQEEKYEAIIQNLEKDRQKLVSSQEQDREQLIQKLNCEKDEAIQTALKEFKLEREVVEKELLEKVKHLENQIAKSPAIDSTRGDSSSLVAELQEKLQEEKAKFLEQLEEQEKRKNEEMQNVRTSLIAEQQTNFNTVLTREKMRKENIINDLSDKLKSTMQQQERDKDLIESLSEDRARLLEEKKKLEEEVSKLRSSSFVPSPYVATAPELYGACAPELPGESDRSAVETADEGRVDSAMETSMMSVQENIHMLSEEKQRIMLLERTLQLKEEENKRLNQRLMSQSMSSVSSRHSEKIAIRDFQVGDLVLIILDERHDNYVLFTVSPTLYFLHSESLPALDLKPGEGASGASRRPWVLGKVMEKEYCQAKKAQNRFKSPLGTKFYRVKAVSWNKKV [chain 1 V461S] | ~50 fold binding |

Variants of: B2
Assay: LUMIER assay; HEK293ET cell lysates; read off a plot

| Variant | response |
| --- | --- |
| chain 1 ENYQVGLAELRTLMTIEKDQCISELISRHEEESNILKAELNKVTSLHNQAFEIEKNLKEQIIELQSKLDSELSALERQKDEKITQQEEKYEAIIQNLEKDRQKLVSSQEQDREQLIQKLNCEKDEAIQTALKEFKLEREVVEKELLEKVKHLENQIAKSPAIDSTRGDSSSLVAELQEKLQEEKAKFLEQLEEQEKRKNEEMQNVRTSLIAEQQTNFNTVLTREKMRKENIINDLSDKLKSTMQQQERDKDLIESLSEDRARLLEEKKKLEEEVSKLRSSSFVPSPYVATAPELYGACAPELPGESDRSAVETADEGRVDSAMETSMMSVQENIHMLSEEKQRIMLLERTLQLKEEENKRLNQRLMSQSMSSVSSRHSEKIAIRDFQVGDLVLIILDERHDNYVLFTVSPTLYFLHSESLPALDLKPGEGASGASRRPWVLGKVMEKEYCQAKKAQSRFKVPLGTKFYRVKAVSWNKKV [chain 1 N457S] | ~1.4 fold binding |
| chain 1 ENYQVGLAELRTLMTIEKDQCISELISRHEEESNILKAELNKVTSLHNQAFEIEKNLKEQIIELQSKLDSELSALERQKDEKITQQEEKYEAIIQNLEKDRQKLVSSQEQDREQLIQKLNCEKDEAIQTALKEFKLEREVVEKELLEKVKHLENQIAKSPAIDSTRGDSSSLVAELQEKLQEEKAKFLEQLEEQEKRKNEEMQNVRTSLIAEQQTNFNTVLTREKMRKENIINDLSDKLKSTMQQQERDKDLIESLSEDRARLLEEKKKLEEEVSKLRSSSFVPSPYVATAPELYGACAPELPGESDRSAVETADEGRVDSAMETSMMSVQENIHMLSEEKQRIMLLERTLQLKEEENKRLNQRLMSQSMSSVSSRHSEKIAIRDFQVGDLVLIILDERHDNYVLFTVSPTLYFLHSESLPALDLKPGEGASGASRRPWVLGKVMEKEYCQAKKAQNRFKSPLGTKFYRVKAVSWNKKV [chain 1 V461S] | ~1.7 fold binding |
| chain 1 ENYQVGLAELRTLMTIEKDQCISELISRHEEESNILKAELNKVTSLHNQAFEIEKNLKEQIIELQSKLDSELSALERQKDEKITQQEEKYEAIIQNLEKDRQKLVSSQEQDREQLIQKLNCEKDEAIQTALKEFKLEREVVEKELLEKVKHLENQIAKSPAIDSTRGDSSSLVAELQEKLQEEKAKFLEQLEEQEKRKNEEMQNVRTSLIAEQQTNFNTVLTREKMRKENIINDLSDKLKSTMQQQERDKDLIESLSEDRARLLEEKKKLEEEVSKLRSSSFVPSPYVATAPELYGACAPELPGESDRSAVETADEGRVDSAMETSMMSVQENIHMLSEEKQRIMLLERTLQLKEEENKRLNQRLMSQSMSSVSSRHSEKIAIRDFQVGDLVLIILDERHDNYVLFTVSPTLYFLHSESLPALDLKPGEGASGASRRPWVLGKVMEKEYCQSKKAQNRFKVPLGTKFYRVKAVSWNKKV [chain 1 A452S] | ~12 fold binding |
| chain 1 ENYQVGLAELRTLMTIEKDQCISELISRHEEESNILKAELNKVTSLHNQAFEIEKNLKEQIIELQSKLDSELSALERQKDEKITQQEEKYEAIIQNLEKDRQKLVSSQEQDREQLIQKLNCEKDEAIQTALKEFKLEREVVEKELLEKVKHLENQIAKSPAIDSTRGDSSSLVAELQEKLQEEKAKFLEQLEEQEKRKNEEMQNVRTSLIAEQQTNFNTVLTREKMRKENIINDLSDKLKSTMQQQERDKDLIESLSEDRARLLEEKKKLEEEVSKLRSSSFVPSPYVATAPELYGACAPELPGESDRSAVETADEGRVDSAMETSMMSVQENIHMLSEEKQRIMLLERTLQLKEEENKRLNQRLMSQSMSSVSSRHSEKIAIRDFQVGDLVLIILDERHDNYVLFTVSPTLYFLHSESLPALDLKPGEGASGASRRPWVLGKVMEKEYCQAKKAQNRSKVPLGTKFYRVKAVSWNKKV [chain 1 F459S] | ~1.4 fold binding |
